Patent US20250195629A1, “SITE-SPECIFIC BRAIN THERAPEUTICS” (William Marsh Rice University, priority 2023, published 2025)

Key:
[1] = tested on: mice; assay: Weekly repeated RAID open field test over three weeks; type: in vivo, mouse
Text: FIG. 15 includes data related to protein delivery and behavioral testing protocol repeated weekly over a course of three weeks. FIG. 15a illustrates weekly RAID-induced behavioral modulation including a first counterclockwise rotations graph measured in the open field test before and after administration of L-DOPA. FIG. 15b illustrates weekly RAID-induced behavioral modulation including a second counterclockwise rotations graph measured in the open field test before and after administration of L-DOPA. FIG. 15c illustrates weekly RAID-induced behavioral modulation including a first clockwise rotations graph measured in the open field test before and after administration of L-DOPA. FIG. 15d illustrates weekly RAID-induced behavioral modulation including a second clockwise rotations graph measured in the open field test before and after administration of L-DOPA. Data is presented as mean±s.e.m. n=7 mice for FUS alone group and n=14, 13, and 11 mice for the FUS+mAADC-IKVAV (SEQ ID NO: 23) group in weeks 1, 2, and 3, respectively; *P<0.05, **P<0.01, ns (not significant), using Two-way ANOVA with Sidak's multiple comparison test.
Locomotor behavior test—Two groups of mice underwent FUS-BBBO targeting two sites at left striatum immediately after intravenous injection of recombinant protein AADC-IKVAV (SEQ ID NO: 23) (n=14 mice for FUS+AADC-IKVAV group, 20 mg/mL, 250 mg/kg) or equivalent volume of PBS buffer (n=11 mice for FUS alone group). Another group without FUS-BBBO procedure served as wild type control (n=12 mice for WT group). After 46 h, the first session of behavioral test was performed in a custom-made non-transparent open field box (30.5 cm×30.5 cm) as a baseline. Each mouse was individually placed into the apparatus center with a light intensity and background noise at ˜320 lux and 46 dB (400 Hz peak), respectively. After a habituation period of 5 min, the locomotor activity of a freely-moving mouse was recorded for 15 min by a video tracking system (Stoelting Co.) consisting of an overhead camera connected to a computer with Any-Maze software. […]

[2] = tested on: GFAP+ astrocytes; assay: Safety analysis, GFAP staining for astrocytic activation; type: in vivo, mouse; details: RAID treatment, FUS+AADC-IKVAV
Text: Additionally, the brain sections stained for GFAP were imaged using a 4× objective in DAPI (nuclei) and far-red (GFAP) channels. Three square areas were then selected in both the left and right striatum respectively, each with 3×3 binning, for imaging with a 40× objective to quantify GFAP+ cells.
In FIG. 7, we applied the following brightness (white) thresholds for the corresponding channels: 6045 (DAPI, nuclei, not shown), 15,000 (Cy3, D1R), 16,000 (green, D2R), and 6045 (far-red, c-Fos), with a gamma value of 1. In FIG. 11, we applied a Brightness (White) threshold of 6045 for both DAPI (nuclei, not shown) and far-red (c-Fos) channels, with a Gamma value of 1. The images were then overlayed, and the c-Fos+ cells were manually counted. Similarly, the GFAP+ cells were manually counted, as shown in FIG. 15c and FIG. 17, by applying a Brightness (White) threshold of 5686 and a Gamma value of 1 for both the DAPI (nuclei) and far-red (GFAP, purple) channels.
Adjacent sections were stained separately with an anti-GFAP antibody to examine astrocytic activation. […]

[3] = tested on: brain tissue; assay: Safety analysis, hematoxylin staining of brain sections; type: in vivo, mouse; details: RAID approach, FUS+AADC-IKVAV+L-DOPA, behavior study
Experimental: Additionally, the brain sections stained for GFAP were imaged using a 4× objective in DAPI (nuclei) and far-red (GFAP) channels. Three square areas were then selected in both the left and right striatum respectively, each with 3×3 binning, for imaging with a 40× objective to quantify GFAP+ cells. Safety analysis—To investigate potential lesions resulting from the use of FUS-BBBO in the RAID protocol, hematoxylin staining was performed (n=11 mice for FUS alone+L-DOPA group and n=14 mice for FUS+AADC-IKVAV (SEQ ID NO: 23)+L-DOPA group) on the adjacent sections of each representative section used for c-Fos staining, which was associated with behavior analysis as shown in FIG. 11. Hematoxylin staining was conducted according to the following steps: […] (5) This was followed by a 3-minute wash in H2O; (6) A 20-second soak in Bluing Reagent (H&E Staining Kit, Abcam ab245880) was carried out; (7) Another 3-minute wash in H2O followed; […]

[4] = Mouse body weight analysis; type: in vivo; details: day 0 vs 2 days after injection, RLuc8.6 100 mg/kg, AADC-IKVAV 250 mg/kg
Experimental: To assess the potential impact of the RAID approach on the body weight of the mice involved in behavior analysis (n=11 mice for the FUS alone+L-DOPA group and n=14 mice for the FUS+AADC-IKVAV (SEQ ID NO: 23)+L-DOPA group), their body weight was recorded on a daily basis before and after FUS-BBBO administration. […] The body weight of the additional group of mice was also recorded in a similar manner; however, unintentionally four mice were omitted from weighing on the day following the AADC-IKVAV (SEQ ID NO: 23) injection. Similarly, the mouse body weight was recorded before and after the intravenous injection of unmodified or engineered RLuc8.6, which is related to the study presented in FIG. 5.

Molecule | reduction in clockwise rotations after L-DOPA ([1]; week 1, FUS-alone group) [%] | reduction in counter-clockwise (ipsilateral) rotations after L-DOPA ([1]; week 1, control mice receiving FUS alone) | clockwise rotations after L-DOPA ([1]; week two, FUS-alone control group) | numbers of GFAP+ astrocytes in targeted area vs contralateral site [2] | tissue damage or bleeding by hematoxylin staining [3] | Weight loss ([4]; FUS-BBBO + protein i.v., RLuc8.6-IKVAV 104 mg/kg) [%] | Weight loss ([4]; protein i.v. alone without FUS) [%]
N[C@@H](Cc1ccc(O)c(O)c1)C(=O)O [L-DOPA, reference compound] | 53±18 | not observed | no significant effects | – | – | – | –
AADC-IKVAV: aromatic-L-amino-acid decarboxylase (AADC) protein fused with short peptide IKVAV (SEQ ID NO: 23); CDS SEQ ID NO: 21 (protein, misc_feature 1..1602 Synthetic: AADC-IKVAV) MRGSHHHHHHGMASMTGGQQMGRDLYDDDDKDPMNASEFRRRGKEMVDYMANYMEGIEGRQVYPDVEPGYLRPLIPAAAPQEPDTFEDIINDVEKIIMPGVTHWHSPYFFAYFPTASSYPAMLADMLCGAIGCIGFSWAASPACTELETVMMDWLGKMLELPKAFLNEKAGEGGGVIQGSASEATLVALLAARTKVIHRLQAASPELTQAAIMEKLVAYSSDQAHSSVERAGLIGGVKLKAIPSDGNFAMRASALQEALERDKAAGLIPFFMVATLGTTTCCSFDNLLEVGPICNKEDIWLHVDAAYAGSAFICPEFRHLLNGVEFADSFNFNPHKWLLVNFDCSAMWVKKRTDLTGAFRLDPTYLKHSHQDSGLITDYRHWQIPLGRRFRSLKMWFVFRMYGVKGLQAYIRKHVQLSHEFESLVRQDPRFEICVEVILGLVCFRLKGSNKVNEALLQRINSAKKIHLVPCHLRDKFVLRFAICSRTVESAHVQRAWEHIKELAADVLRAEREGGSGSSGGSGGSGGSGIKVAV | – | – | – | did not affect | didn't cause observable tissue damage or bleeding | 10.3±0.5 | 13.8±0.8
